In patent US20250295796A1, “CELL PENETRATING POLYPEPTIDES (CPPS) AND THEIR USE IN HUMAN THERAPY” (RDP PHARMA AG, priority 2021, published 2025):

What was measured:
[1] = tested on: Human hepatocellular carcinoma cell lines; assay: Monolayer assay, human hepatocellular carcinoma cell lines, 96h treatment (geomean of three lines); type: cell-based
Description: (§1) Monolayer Assay Propidium Iodid (PI). Cells were harvested from exponential phase cultures, counted and depending on the cell line 3.000 to 20.000 cells were plated in 96-well flat-bottom microtiter plates After a 24 h recovery period to allow cells to resume exponential growth, 10 μl of culture medium (four control wells/plate) or culture medium with the test compound were added by a liquid handling robotic system and treatment continued for four days. Compounds were applied in half-log increments at 10 concentrations in duplicate. Three independent experiments were performed. Cells were then washed with 200 μl PBS to remove dead cells followed by addition of 200 μl of a solution containing 7 μg/ml propidium iodide (PI) and 0.1% (v/v) Triton X-100. After an incubation period of 1-2 h at room temperature, fluorescence (FU) was measured using the Cytofluor 4000 microplate reader (excitation λ=530 nm, emission λ=620 nm) to quantify the amount of attached viable cells. Concentrations required for 50% inhibition of cell growth (IC50) were calculated by non-linear regression (log[conc. of inhibitor]versus response (% T/C)) using the analysis software GraphPad Prism®, Prism 5 for windows, version 5.01 (GraphPad Software Inc., CA).
CROMOC36—in vitro activity Human hepatocellular carcinoma cell lines IC50 values of CROMOC36 and Sorafenib, 96h treatment. […] The individual results for CROMOC36 are included in FIG. 24. […] The individual results for Sorafenib are included in (FIG. 24).

LIXF 575L = assay: Monolayer assay, 96h treatment, LIXF 575L; type: cell-based, human
Description: as §1
CROMOC36—in vitro activity Human hepatocellular carcinoma cell lines IC50 values of CROMOC36 and Sorafenib, 96h treatment. […]

[2] = tested on: human pancreatic tumor cell lines; assay: Propidium iodide based monolayer proliferation assay, panel of 13 human pancreatic tumor cell lines
Description: as §1
CROMOC36—in vitro activity Human pancreatic carcinoma cell lines. The aim of this study was to investigate the antitumor activity of CROMOC36 in vitro on a panel of 13 human pancreatic tumor cell lines. Antitumor activity was assessed after four days of CROMOC36 treatment using a propidium iodide based monolayer proliferation assay. Up to four experiments were performed in each cell line, testing CROMOC36 at ten concentrations in half-log increments up to 1 μM. Taxol, an antitumor agent commonly used for the treatment of pancreatic cancer, was used as a reference compound and tested in half-log steps up to 0.3 μM.

PATU8988T = assay: Propidium iodide monolayer assay, PATU8988T; type: cell-based, human; conditions: four days
Description: as §1, with “Concentrations required for 50% inhibition of cell growth (IC50) were calculated by non-linear regression (log[conc. of inhibitor]versus response (% T/C)) using the analysis software GraphPad Prism®, Prism 5 for windows, version 5.01 (GraphPad Software Inc., CA).” left out
(§2) CROMOC36—in vitro activity Human pancreatic carcinoma cell lines. […] Antitumor activity was assessed after four days of CROMOC36 treatment using a propidium iodide based monolayer proliferation assay. […]

HUPT3 = assay: Propidium iodide monolayer assay, HUPT3; type: cell-based, human; conditions: HUPT3, four days
Description: as §1, with “Concentrations required for 50% inhibition of cell growth (IC50) were calculated by non-linear regression (log[conc. of inhibitor]versus response (% T/C)) using the analysis software GraphPad Prism®, Prism 5 for windows, version 5.01 (GraphPad Software Inc., CA).” left out
as §2

[3] = tested on: murine Lewis lung carcinoma; assay: Lewis lung carcinoma (LLC) model, primary tumor growth and metastasis
Description: The efficacy of CROMOC36 on the Lewis lung carcinoma (LLC) model, was selected for testing the activity of CROMOC36 against primary tumor growth and metastasis formation. CROMOC36 was tested as a single agent and in combination with Cyclophosphamide (CYPP). In addition, single-agent CYPP was used as a reference compound, allowing comparison of the efficacy of CROMOC36 with a commonly used antitumor agent (summarized in FIG. 9).

[4] = tested on: IMR32 human neuroblastoma xenograft; assay: IMR32 human neuroblastoma xenograft model; type: in vivo, mice; conditions: q14dx2
Excerpt: FIG. 11: IMR32 s.c. implanted. Treatment on xenograft mice with advanced tumors (volume >50 mm^3). Variation in tumor volume expressed as percentage with respect to initial volume (day 0; designated as 100%). Final measurements for vehicle (PBS) and Doxorubicin groups were taken on day 42. For the remaining groups, final measurements were taken on day 63, the termination day of the experiment. Growth reduction compared to controls on day 42 (p<0.01).
The aim of this study was to assess the in vivo efficacy of CROMOC36 on a IMR32 human neuroblastoma xenograft model. CROMOC36 was administered subcutaneously (s.c.) at intervals of two weeks (q14dx2) at two different doses (32 mg/Kg) and also in combination with doxorubicin administered intravenously (i.v.) (32/kg CROMOC36+4+4 mg/Kg doxorubicin, s.c and i.v., q14dx2). Doxorubicin was also used alone as a reference compound (8 mg/kg, i.v., q14dx2). Vehicle was PBS.

[5] = tested on: 4T1 breast tumor lung metastasis; assay: Organ-distribution in 4T1 breast tumor lung metastasis mouse model; conditions: four hours after i.v. 8 mg/kg, ex vivo total photon flux
Description: In vivo organ-distribution of CROMOC36-AF680 molecules in tumor containing mice. First orthotopic allograft 4T1 breast tumor lung metastasis mouse model was analyzed for CROMOC-AF680 distribution in vivo (FIG. 19A). Four hours after i.v. injection of 8 mg/kg of the CROMOC molecule labeled with the AF680 fluorescent dye, lungs containing 4T1cell metastasis were isolated and fluorescence intensity was assessed ex vivo (total photon flux shown on X-axis logarithmic scale).

[6] = tested on: immortalized non-tumor cells; assay: SRB assay, cytotoxicity to non-tumor cells versus cancer cells
[7] = CROMOC36 4 mg/kg, q2dx5, single agent
[8] = combination of CROMOC36 and CYPP

B1: CROMOC36: single chain PvuII endonuclease fused at its C-terminus to DDM36, PEGylated final product used in the Examples (protein)
chain: MSHPDLNKLLELWPHIQEYQDLALKHGINDIFQDNGGKLLQVLLITGLTVLPGREGNDAVDNAGQEYELKSINIDLTKGFSTHHHMNPVIIAKYRQVPWIFAIYRGIAIEAIYRLEPKDLEFYYDKWERKWYSDGHKDINNPKIPVKYVMEHGTKIYGSGGSGGSSHPDLNKLLELWPHIQEYQDLALKHGINDIFQDNGGKLLQVLLITGLTVLPGREGNDAVDNAGQEYELKSINIDLTKGFSTHHHMNPVIIAKYRQVPWIFAIYRGIAIEAIYRLEPKDLEFYYDKWERKWYSDGHKDINNPKIPVKYVMEHGTKIYGNSGSGKKKKKGKGSGLGSGKKKDPLGSGLGSGKKKKKGKGSGLGSGKKKDPLGST
modifications: PEGylated; peptide, CROMOC36
potency compared to Sorafenib ([1]; geomean IC50 of three HCC cell lines): over 300 fold | IC50 ([1]; three HCC cell lines, 96h treatment): 14.1 nM | IC50 (LIXF 575L): 17 nM | IC50 ([2]; 13 pancreatic cell lines, four days treatment, read-out: geomean IC50): 45.9 nM | antitumor activity ([2]; on five of the cell lines tested, up to 1 μM): no activity or only marginal activity | IC50 (PATU8988T): 2.79 nM | IC50 (HUPT3): ~10 nM | inhibition of total number of metastases ([3]; CROMOC36 0.4 mg/kg): 24% | inhibition of total number of metastases ([3]; CROMOC36 4 mg/kg): 66% | reduction of number of large metastases [3, 7]: 69.1% | reduction of number of medium metastases [3, 7]: 49.2% | reduction of number of small metastases [3, 7]: 61.2% | tolerability ([3]; LLC model): No major issues | inhibition of number of metastases ([3]; combination of CROMOC36 (4 mg/kg) and CYPP (180 mg/kg)): 81% | final decrease in body weight (BW) compared to the start of the experiment [3, 8]: 3.7% | reduction of number of large metastases [3, 8]: 89.2% | reduction of number of medium metastases [3, 8]: 66.7% | reduction of number of small metastases [3, 8]: 81.1% | tumor growth inhibition (TI), primary tumor ([3]; simultaneous combination of CROMOC36 and CYPP): 85.6% | tumor growth inhibition (TI), primary tumor ([3]; single agent, CROMOC36 s.c. q2dx5): 15.2% | tumor growth inhibition compared to controls ([4]; CROMOC36 32/kg s.c. + doxorubicin 4+4 mg/Kg i.v.): 89% | tumor growth inhibition (TGI) compared to controls ([4]; single agent, CROMOC36 32 mg/Kg s.c., doxorubicin 8 mg/kg i.v.): 82% | enrichment in lungs of breast tumor metastasis containing animals versus tumor free animals [5]: more than 10.000 × | times less cytotoxic to immortalized non-tumor cells than to cancer cells [6]: 40->100
